Test [1] concerns the target T1, human Tweak-Fc (human, UniProt O43508 106-249, limits assumed).
T1 construct: not shown: Fc part
T1 sequence: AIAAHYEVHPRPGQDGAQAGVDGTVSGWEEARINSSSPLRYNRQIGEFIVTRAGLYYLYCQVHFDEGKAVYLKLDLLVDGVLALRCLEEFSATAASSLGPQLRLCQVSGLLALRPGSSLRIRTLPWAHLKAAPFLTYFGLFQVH
The experiment in a line: SPR (BIAcore T100), TWEAK ligand (Tweak-Fc) amine-coupled on C1 chip, bispecific antibody as analyte, 25 C, 1:1 model. The source says:
(§1) The BIAcore® system is well established for the study of molecule interactions. SPR-technology is based on the measurement of the refractive index close to the surface of a gold coated biosensor chip. Changes in the refractive index indicate mass changes on the surface caused by the interaction of immobilized ligand with analyte injected in solution. The mass increases if molecules bind immobilized ligands on the surface, and vice versa, the mass decreases in case of dissociation of the analyte from the immobilized ligand (reflecting complex dissociation). SPR allows a continuous real-time monitoring of ligand/analyte binding and thus the determination of the association rate constant (ka), the dissociation rate constant (kd), and of the equilibrium constant (KD).
(§2) Around 100 resonance units (RU) of TWEAK was immobilized on the C1 chip surface at pH 5.0 using an amine coupling kit supplied by the GE Healthcare. The sample and system buffer was PBS-T (10 mM phosphate buffered saline including 0.05% Tween20) pH 7.4. Association was measured by injection the bispecific antibody in various concentrations in solution for 3 min at a flow of 30 μl/min starting with 50 nM in 1:1 dilutions. The dissociation phase was monitored for up to 10 min and triggered by switching from the sample solution to running buffer. The surface was regenerated by three times 30 sec. washing with a 3M MgCl2 solution at a flow rate of 30 μl/min. Bulk refractive index differences were corrected by subtracting the response obtained from a blank-coupled surface. Blank injections are also subtracted (=double referencing). For calculation of apparent KD and other kinetic parameters the Langmuir 1:1 model was used.
For orientation: SPR reads the build-up and loss of mass on a sensor chip optically.

A further test concerns the target T2, IL-17 A/F (human, UniProt Q16552 24-155; Q96PD4 31-163).
T2 construct: read as the heterodimer of IL17A and IL17F
The experiment in a line: SPR (BIAcore T100), antibody captured by anti-human F(ab')2, IL17 as analyte, 25 C, 1:1 model. How it is done:
(§3) Around 12000 resonance units (RU) of the capturing system (10 μg/ml goat anti human F(ab′)2; Order Code: 28958325; GE Healthcare Bio-Sciences AB, Schweden) were coupled on a CMS chip at pH 5.0 by using an amine coupling kit supplied by the GE Healthcare. The sample and system buffer was PBS-T (10 mM phosphate buffered saline including 0.05% Tween20) pH 7.4. The bispecific antibody was captured by injecting a 50 nM solution for 1 min at a flow of 10 μl/min. Association was measured by injection human IL17 in various concentrations in solution for 3 min at a flow of 30 μl/min starting with 50 nM in 1:1 dilutions. The dissociation phase was monitored for up to 5 min and triggered by switching from the sample solution to running buffer. The surface was regenerated by two times 60 sec. washing with a glycin pH 2.1 solution at a flow rate of 30 μl/min. Bulk refractive index differences were corrected by subtracting the response obtained from a goat anti human F(ab′)2 surface. Blank injections are also subtracted (=double referencing). For calculation of apparent KD and other kinetic parameters the Langmuir 1:1 model was used.

Test [2] deals with T3, Recombinant human TWEAK (R&D Systems; Cat. #1090-TW/CF) (human, UniProt O43508 97-249, limits assumed).
T3 sequence: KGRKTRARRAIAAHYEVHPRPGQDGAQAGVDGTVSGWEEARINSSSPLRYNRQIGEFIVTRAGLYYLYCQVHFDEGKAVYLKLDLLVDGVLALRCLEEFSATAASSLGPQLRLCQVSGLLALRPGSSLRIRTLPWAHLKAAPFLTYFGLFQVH
As to the kind of experiment: cell-based or functional assay.

A further test addresses human IL17A/A (human, UniProt Q16552 24-155, limits assumed). As to the kind of experiment: SPR (BIAcore T100), antibody captured by anti-human F(ab')2, IL17 as analyte, 25 C, apparent KD, 1:1 model. How it is done:
as §3

The target of test [3] is T1, human Tweak-Fc. As to the kind of experiment: SPR (BIAcore T100), TWEAK ligand (Tweak-Fc) amine-coupled on C1 chip, bispecific antibody as analyte, 25 C.
Source text: as §1
(§4) Around 100 resonance units (RU) of TWEAK was immobilized on the C1 chip surface at pH 5.0 using an amine coupling kit supplied by the GE Healthcare. The sample and system buffer was PBS-T (10 mM phosphate buffered saline including 0.05% Tween20) pH 7.4. Association was measured by injection the bispecific antibody in various concentrations in solution for 3 min at a flow of 30 μl/min starting with 50 nM in 1:1 dilutions. The dissociation phase was monitored for up to 10 min and triggered by switching from the sample solution to running buffer. […]

The target in test [4] is T1, human Tweak-Fc. The experiment in a line: SPR (BIAcore T100), TWEAK ligand (Tweak-Fc) amine-coupled on C1 chip, bispecific antibody as analyte, 25 C, apparent KD, 1:1 model.
Source text: as §1, §4

For test [5], the target named is recombinant human IL-17 (Peprotech #200-17) (human, UniProt Q16552 20-155). The experiment in a line: cell-based or functional assay.
Another test deals with T4, IL-17 F/F (human, UniProt Q96PD4 31-163).
T4 construct: read as the homodimer of IL17F
T4 sequence: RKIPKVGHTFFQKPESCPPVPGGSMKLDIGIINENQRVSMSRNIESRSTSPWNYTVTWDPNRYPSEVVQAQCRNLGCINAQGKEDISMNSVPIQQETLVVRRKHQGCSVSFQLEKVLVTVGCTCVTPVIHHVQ
As to the kind of experiment: SPR (BIAcore T100), antibody captured by anti-human F(ab')2, IL17 as analyte, 25 C. How it is done: as §3

Test [6] deals with T5, Mouse soluble TWEAK (untagged, Example 5) (mouse, UniProt O54907 105-249, limits assumed).
T5 construct: also called Murine TWEAK
T5 sequence: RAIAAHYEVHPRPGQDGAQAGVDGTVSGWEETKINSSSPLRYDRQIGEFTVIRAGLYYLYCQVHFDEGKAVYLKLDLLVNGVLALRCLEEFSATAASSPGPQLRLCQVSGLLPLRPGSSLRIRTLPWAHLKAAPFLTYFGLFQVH
As to the kind of experiment: receptor interaction ELISA: mouse soluble TWEAK preincubated with antibody, then on coated mouse Fn14:Fc (competitor m22). How it is done:
Briefly, Maxisorp plates were coated with mouse Fn14:Fc (extracellular domain of mouse Fn14 (amino acids 1-75 of SEQ ID NO: 98) fused to Fc portion of human IgG1) as described above for human Fn14:Fc, followed by blocking and washing. […] After 1 h of incubation at room temperature and four washes, biotinylated anti-mouse TWEAK antibody at 125 ng/ml in blocking buffer was added for 1 h at room temperature, followed by another four wash steps. The TWEAK antibody was detected by incubation with streptavidin-HRP, diluted 1:5000 in blocking buffer, for 30 minutes at room temperature. Signal was developed and absorbance measured as described above.
For orientation: In an ELISA, binding on a coated surface is turned into a signal by an enzyme label.

For test [7], the target named is T6, Biotinylated human soluble TWEAK (amino acids 99-249 of SEQ ID NO: 68) (human, UniProt O43508 99-249, biotinylated).
T6 construct: also called Human TWEAK
T6 sequence: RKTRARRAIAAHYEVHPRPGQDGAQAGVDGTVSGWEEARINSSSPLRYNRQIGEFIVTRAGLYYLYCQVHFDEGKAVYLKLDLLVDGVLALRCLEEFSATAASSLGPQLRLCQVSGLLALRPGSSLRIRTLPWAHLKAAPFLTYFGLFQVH
The experiment in a line: SPR (Biacore), biotinylated soluble TWEAK on streptavidin chip, 25 C. On the procedure: A Biacore 2000 instrument was used with a Biacore streptavidin coated sensor mounted into the system. The system buffer HBS-ET (10 mM HEPES pH 7.4, 150 mM NaCl, 1 mM EDTA, 0.05% Tween® 20) was used at a flow rate of 100 μl/min. The sample buffer was the system buffer. Biotinylated human soluble TWEAK (amino acids 99-249 of SEQ ID NO: 68) and biotinylated murine soluble TWEAK (amino acids 81-225 of SEQ ID NO: 69) was immobilized on different flow cells on the SA sensor at 150 RU each. The flow cell FC1 was used as a blank reference cell. Each antibody was injected into the system as an analyte at 100 nM at 100 μl/min for 2 min association time. The dissociation of the immunecomplexes were monitored for 5 min. The sensor surface was washed with HBS-ET for 10 seconds and regenerated using 2×2 minutes injections with 10 mM glycine pH 2.25. This procedure was done at 25° C. The kinetically rate limiting step of the complex dissociation phase in the interval [240 s-300 s] was taken to calculate the dissociation rate kd [1/s] (Biacore Evaluation Software 4.0). According to the equation t1/2 diss=ln(2)/(60×kd), the half-life of the immunocomplexes in minutes was calculated.

Test [8] addresses T6, Biotinylated human soluble TWEAK (amino …). As to the kind of experiment: SPR (Biacore), biotinylated soluble TWEAK on streptavidin chip, 37 C.
The target of test [9] is T7, Human recombinant soluble TWEAK (Example 6) (human, UniProt O43508 99-249, limits assumed).
T7 sequence: T6 sequence
As to the kind of experiment: cell-based or functional assay.

In test [10] the target is T8, human Flag-tagged soluble TWEAK (amino acids 106-249) (human, UniProt O43508 106-249).
T8 construct: The sentence gives amino acids 106-249 without naming the entry; also called Human TWEAK; not shown: Flag tag
T8 sequence: T1 sequence
As to the kind of experiment: receptor interaction ELISA: Flag-TWEAK preincubated with antibody, then on coated human Fn14:Fc (competitor m21). How it is done:
96-well Maxisorp® plates (Nunc) were coated with 100 μl 1 μg/ml human Fn14:Fc (extracellular domain of human Fn14 (amino acids 1-75 of SEQ ID NO: 98) fused to Fc portion of human IgG1) in PBS per well for 1.5 h at room temperature and blocked with a solution of 5% FBS in PBS for 30 minutes at room temperature under shaking. […] After washing the Fn14-coated plate once with wash buffer (0.1% Tween® 20 in PBS), 100 μl of the TWEAK-antibody solution were transferred to each well and the plate was incubated for 1 h at room temperature, followed by four washes with wash buffer. Wells were filled with 100 μl of anti-FLAG-HRP detection antibody, diluted 1:5000 in blocking buffer, and incubated for 1 h at room temperature. After four more wash steps, the signal was developed by addition of 100 μl 3,3,5,5-Tetramethylbenzidine (TMB) solution for approximately ten minutes. The reaction was stopped by adding 100 μl of 1 N HCl, and absorbance measured at 450 nm (reference wavelength 620 nm).

Test [11] deals with T1, human Tweak-Fc. As to the kind of experiment: SPR (BIAcore T100), TWEAK ligand (Tweak-Fc) amine-coupled on C1 chip, antibody as analyte, 25 C, apparent KD, 1:1 model.
Test [12] addresses T1, human Tweak-Fc. The experiment in a line: SPR (BIAcore T100), TWEAK ligand (Tweak-Fc) amine-coupled on C1 chip, antibody as analyte, 25 C. On the procedure: as §2
Test [13] addresses T1, human Tweak-Fc. As to the kind of experiment: SPR (BIAcore T100), TWEAK ligand (Tweak-Fc) amine-coupled on C1 chip, antibody as analyte, 25 C, 1:1 model. How it is done: as §2

recombinant human IL-17 (Peprotech #200-17), sequence (Q16552 20-155 limits assumed): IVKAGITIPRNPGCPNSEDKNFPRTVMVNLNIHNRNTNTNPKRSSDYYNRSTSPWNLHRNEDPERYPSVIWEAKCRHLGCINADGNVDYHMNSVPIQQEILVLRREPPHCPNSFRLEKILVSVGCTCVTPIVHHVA
T2 sequence (Q16552 24-155 limits assumed, one chain of several): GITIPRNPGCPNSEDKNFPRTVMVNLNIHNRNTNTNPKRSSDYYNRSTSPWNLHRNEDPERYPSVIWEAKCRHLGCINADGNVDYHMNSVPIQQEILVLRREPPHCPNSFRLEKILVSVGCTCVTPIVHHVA
human IL17A/A, sequence (Q16552 24-155 limits assumed): as the sequence (Q16552 24-155 limits assumed, one chain of several) above

B1: Bispecific <Tweak-IL-17> #4 antibody (bispecific antibody, human IgG1, kappa)
heavy 1: not shown
heavy 2: not shown
light: DIVMTQSPLSLPVTPGEPASISCRSSQSLVHSNGDTYFHWYLQKPGQSPQLLIYKVSNRFSGVPDRFSGSGSGTDFTLKISRVEAEDVGVYYCSQTTHAPFTFGQGTKLEIKRTVAAPSVFIFPPSDEQLKSGTASVVCLLNNFYPREAKVQWKVDNALQSGNSQESVTEQDSKDSTYSLSSTLTLSKADYEKHKVYACEVTHQGLSSPVTKSFNRGEC
notes: Bivalent one-armed scFab format (WO 2011/117330), IgG1 knobs-into-holes
In the test with human Tweak-Fc [1], B1 yielded a koff of 5.42e-05 s⁻¹ and a kon of 426000 M⁻¹ s⁻¹. Also, the Kd with IL-17 A/F was found to be 0.27 nM. Also, in [2], the “IC50 (nM) per valency, Tweak induced HFLS proliferation (CellTiter Glo)” value is 0.157 nM. In addition, the Kd in the test with human IL17A/A worked out at 0.15 nM. Further, in the test with human Tweak-Fc [3], the “T½” value was found to be 3.55 h. Moreover, in the test with human Tweak-Fc [4], the Kd was found to be 0.127 nM. Besides, in test [5], the “IL-6 IC50 [nM] per valency (IL-17 induced cytokine production, HFLS-RA)” value was 1.72 nM and the “IL-8 IC50 [nM] per valency (IL-17 induced cytokine production, HFLS-RA)” value was determined as 1.1 nM. Also, the binding result with IL-17 F/F is listed as “no binding (tested: IL17 injected starting with 50 nM)”.

B2: Humanized <TWEAK> 305- antibody 27 (antibody, V domains shown)
VH: QVQLVQSGAEVKKPGSSVKVSCKASGFDFSTYYMSWVRQAPGQGLEWMGTVYVRQGTTYYASWLNGRVTITADESTSTAYMELSSLRSEDTAVYYCARGGYNYDDAFVIWGQGTLVTVSS
VL: DIQMTQSPSSVSASVGDRVTITCQASQNIYSNLAWYQQKPGKAPKLLIYTASYLASGVPSRFSGSGSGTDYTLTISSLQPEDFATYYCQTAYYNSRPDTVAFGGGTKVEIK
Take B2: the results for the IC50 in test [6] and in [10] were 8.2 ng/mL and 2.3 ng/mL, respectively. For the same molecule, in test [7], the “Biacore t/2 diss. [min] 25° C. human” value came to 110 min. In [2], the “IC50 (nM) per valency, Tweak induced HFLS proliferation (CellTiter Glo)” value came out at 0.152 nM. The “Biacore t/2 diss. [min] 37° C. human” value in test [8] is 147 min. The “Inhibition of IL8-Secretion [ng/ml] (A375 cells)” value in [9] stood at 197 ng/mL. The Kd with human Tweak-Fc [11] came out at 0.0252 nM. For the same molecule, in the test with human Tweak-Fc [12], the “T½” value came to 3.37 h. The koff in the test with human Tweak-Fc [13] amounted to 5.71e-05 s⁻¹. Also, the on-rate constant (kon) with human Tweak-Fc [13] stood at 2.27e+06 M⁻¹ s⁻¹.

As usually defined, the koff is the first-order rate constant of dissociation. The low end stands for a long-lived complex, the high end for a short-lived complex. In general, kon refers to the second-order rate constant of association. One may read the IC50 as the concentration that inhibits the measured activity by half. Read a low IC50 as greater potency in that assay.

The values above are taken from US20150132307A1 (Hoffmann-La Roche, published 2015).
